The experiment concerns the target T1, human complement factor H (human, UniProt P08603 19-1231).
T1 construct: complement factor H, human; used at 500 nM in the ELISA; also called FH; human FH
Kind of experiment: ELISA; 1 µg histidine-tagged CspZ coated on wells, blocked with 5% BSA in PBS; PBS (control), irrelevant human IgG, #1139c or #1193c (0.4-50 nM) added, then 500 nM human FH; bound FH detected with sheep anti-human FH and donkey anti-sheep HRP. Particulars: both partners purified. On the technique in general: An ELISA detects its analyte on a solid surface through an enzyme-linked reagent.

T1 sequence (P08603 19-1231): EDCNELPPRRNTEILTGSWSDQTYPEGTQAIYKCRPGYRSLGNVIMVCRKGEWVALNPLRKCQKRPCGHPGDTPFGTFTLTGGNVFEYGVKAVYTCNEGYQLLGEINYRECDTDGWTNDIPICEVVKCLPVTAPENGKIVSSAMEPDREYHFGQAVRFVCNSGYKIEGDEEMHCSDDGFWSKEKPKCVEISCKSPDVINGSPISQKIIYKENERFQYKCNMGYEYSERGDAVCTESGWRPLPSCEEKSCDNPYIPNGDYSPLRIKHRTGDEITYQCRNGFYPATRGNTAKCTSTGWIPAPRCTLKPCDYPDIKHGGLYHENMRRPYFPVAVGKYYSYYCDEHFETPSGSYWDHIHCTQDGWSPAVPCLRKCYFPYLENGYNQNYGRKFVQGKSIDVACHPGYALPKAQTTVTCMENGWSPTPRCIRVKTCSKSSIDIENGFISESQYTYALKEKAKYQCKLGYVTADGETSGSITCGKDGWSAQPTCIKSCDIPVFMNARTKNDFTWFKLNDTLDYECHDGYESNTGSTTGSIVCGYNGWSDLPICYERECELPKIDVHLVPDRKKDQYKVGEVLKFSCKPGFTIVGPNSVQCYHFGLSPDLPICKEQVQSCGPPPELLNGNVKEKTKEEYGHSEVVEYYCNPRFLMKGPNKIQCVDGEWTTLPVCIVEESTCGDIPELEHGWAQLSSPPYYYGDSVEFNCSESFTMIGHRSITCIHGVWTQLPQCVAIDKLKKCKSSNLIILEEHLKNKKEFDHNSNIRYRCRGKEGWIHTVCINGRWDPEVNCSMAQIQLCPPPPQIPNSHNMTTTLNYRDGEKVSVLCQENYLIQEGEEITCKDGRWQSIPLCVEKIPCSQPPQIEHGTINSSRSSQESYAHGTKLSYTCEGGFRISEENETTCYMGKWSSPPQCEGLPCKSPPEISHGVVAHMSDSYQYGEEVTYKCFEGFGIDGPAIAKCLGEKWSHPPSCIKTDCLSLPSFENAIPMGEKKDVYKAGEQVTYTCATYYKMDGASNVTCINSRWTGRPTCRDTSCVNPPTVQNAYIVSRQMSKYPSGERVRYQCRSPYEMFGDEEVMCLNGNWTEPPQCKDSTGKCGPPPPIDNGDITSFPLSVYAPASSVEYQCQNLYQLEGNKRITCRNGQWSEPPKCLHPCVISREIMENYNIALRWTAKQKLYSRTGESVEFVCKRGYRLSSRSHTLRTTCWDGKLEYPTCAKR

B1: histidine-tagged CspZ (B. burgdorferi B31 CspZ) (natural protein)
chain: RLNQRNINELKIFVEKAKYYSIKLDAIYNECTGAYNDIMTYSEGTFSDQSKVNQAISIFKKDNKIVNKFKELEKIIEEYKPMFLSKLIDDFAIELDQAVDNDVSNARHVADSYKKLRKSVVLAYIESFDVISSKFVDSKFVEASKKFVNKAKEFVEENDLIALECIVKTIGDMVNDREINSRSRYNNFYKKEADFLGAAVELEGAYKAIKQTLL
notes: CspZ (BbCRASP-2), outer surface protein of Borrelia burgdorferi strain B31; codon-optimised synthetic DNA in pET28a (BamHI/SalI); this is a surmise; also called BbCRASP-2
For B1, the binding result was “binds”.
